As usually defined, the Kd is the free concentration of one partner at which half of the binding sites on the other are occupied at equilibrium, for simple one-to-one binding.

Where no end group is shown, it is not given here.

The target of one experiment is T1, VEGFR-1 (human, UniProt P17948 27-1338).
T1 construct: whole, on cells; In detergent lysate of HUVECs in the pull-down assay; on IM-9 and RPMI 8226 cells and HUVECs in the functional assays; also called VEGF receptor-1
In words: streptavidin-agarose pull-down from HUVEC lysate with biotin-labeled RLYE, immunoblot for VEGFR-1. The procedure:
HUVECs were lysed in a pull-down buffer [50 mM Tris-HCl (pH 8.0), 150 mM sodium chloride, 1.0% NP-40, 0.5% sodium deoxycholate and 0.1% SDS]. A lysate ([…] of proteins) was reacted with biotin-labeled RLYE (0.15 or 1.5 nM) for 1 hour, and reacted with streptavidin-agarose beads ([…]) at 4° C. for 1 hour. RLYE-binding proteins were isolated from the cell lysate through centrifugation, washed, and then boiled for 10 minutes. The bead-binding proteins were isolated by SDS-PAGE, and immunoblotting was performed with an antibody with respect to VEGFR-2 or VEGFR-1.
(§1) Subsequently, it was investigated whether RLYE (SEQ ID NO: 2) interacts with VEGFR-2 expressed in HUVECs. HUVECs were cultured with FITC-RLYE before or after VEGF-A treatment, and FACS was performed to examine an amount of RLYE (SEQ ID NO: 2) binding to the HUVECs. […] To examine binding between RLYE (SEQ ID NO: 2) and VEGF receptors, a pull-down assay was performed. […] Therefore, the binding between RLYE (SEQ ID NO: 2) and VEGFR-2 was identified as a strong bond having a small dissociation coefficient (194 nM), and it was also seen that RLYE (SEQ ID NO: 2) binds to VEGFR-2 at the same positions to which VEGF-A/C binds (immunoglobulin homology domains D2 and D3) (see FIG. 10A).
A general note: In western blotting, separated proteins are transferred to a membrane and probed.

In experiment [1] the target is T2, VEGFR-2 expressed in HUVECs (human, UniProt P35968 20-1356).
T2 construct: whole, on cells; On the surface of HUVECs in FACS, confocal microscopy and the cell assays; in detergent lysate of HUVECs in the pull-down assay; also called VEGF receptor-2
The experiment is described as follows: flow cytometry (FACS) on HUVECs, FITC-RLYE 15 nM, VEGF-A 100 ng/ml added before or after. The method, then:
HUVECs were cultured in a 60-mm culture plate for 24 hours. The cells were isolated from the plate with 5 mM EDTA-containing phosphate-buffered saline (PBS), washed with PBS three times, and suspended in 2% FBS/0.1% bovine serum albumin-containing PBS. Afterward, before or after the reaction with FITC-conjugated RLYE (15 nM), the cells were treated with VEGF (100 ng/ml), stored on ice for 30 minutes, fixed in 2% paraformaldehyde, and assessed with a fluorescence activated cell sorter (FACS Calibur, Becton Dickinson) by flow cytometry.
as §1

Experiment [2] addresses T2, VEGFR-2 expressed in HUVECs. In words: cell-based or functional assay.
For a further experiment, the target named is T3, rhVEGFR-2 (human, UniProt P35968 20-764, limits assumed).
T3 construct: Immobilised on the carboxymethylated dextran chip for SPR; also called recombinant human VEGFR-2; VEGF receptor-2
The experiment is described as follows: SPR (BIAcore), rhVEGFR-2 immobilised on the chip, RLYE injected. The method, then:
Binding dynamics and affinity of RLYE to rhVEGFR-2 were evaluated with BIAcore AB (Sweden). A carboxymethylated dextran biosensor chip (CMS, BIAcore AB) was activated with 1-ethyl-3-(3-dimethylaminopropyl)carbodiimide and N-hydroxysuccinimide according to the manufacturer's manual. The rhVEGFR-2 (1 ng/μl, 10 mM Hepes, 150 mM NaCl, 3 mM EDTA, 0.005% Tween-20-containing HBS-EP buffer) was injected over the activated CMS chip for fixation. Various concentrations of an RLYE solution was injected over the rhVEGFR-2-fixed center chip with a flow rate of 25 μl/min, and binding and non-binding characteristics between RLYE and the rhVEGFR-2 were analyzed. The peptide bonds were measured in arbitrary response units, and after the injection of each sample (120 sec), the HBS-EP buffer was passed over a sensor surface to monitor dissociation. The equilibrium dissociation constant (Kd) was derived to a fixing step-combined model.
Meanwhile, the interaction between RLYE (SEQ ID NO: 2) and rhVEGFR-2 was examined by SPR analysis.
(In SPR one partner is held on a chip, and binding of the other changes the refractive index at the surface.)

T2 sequence (P35968 20-1356): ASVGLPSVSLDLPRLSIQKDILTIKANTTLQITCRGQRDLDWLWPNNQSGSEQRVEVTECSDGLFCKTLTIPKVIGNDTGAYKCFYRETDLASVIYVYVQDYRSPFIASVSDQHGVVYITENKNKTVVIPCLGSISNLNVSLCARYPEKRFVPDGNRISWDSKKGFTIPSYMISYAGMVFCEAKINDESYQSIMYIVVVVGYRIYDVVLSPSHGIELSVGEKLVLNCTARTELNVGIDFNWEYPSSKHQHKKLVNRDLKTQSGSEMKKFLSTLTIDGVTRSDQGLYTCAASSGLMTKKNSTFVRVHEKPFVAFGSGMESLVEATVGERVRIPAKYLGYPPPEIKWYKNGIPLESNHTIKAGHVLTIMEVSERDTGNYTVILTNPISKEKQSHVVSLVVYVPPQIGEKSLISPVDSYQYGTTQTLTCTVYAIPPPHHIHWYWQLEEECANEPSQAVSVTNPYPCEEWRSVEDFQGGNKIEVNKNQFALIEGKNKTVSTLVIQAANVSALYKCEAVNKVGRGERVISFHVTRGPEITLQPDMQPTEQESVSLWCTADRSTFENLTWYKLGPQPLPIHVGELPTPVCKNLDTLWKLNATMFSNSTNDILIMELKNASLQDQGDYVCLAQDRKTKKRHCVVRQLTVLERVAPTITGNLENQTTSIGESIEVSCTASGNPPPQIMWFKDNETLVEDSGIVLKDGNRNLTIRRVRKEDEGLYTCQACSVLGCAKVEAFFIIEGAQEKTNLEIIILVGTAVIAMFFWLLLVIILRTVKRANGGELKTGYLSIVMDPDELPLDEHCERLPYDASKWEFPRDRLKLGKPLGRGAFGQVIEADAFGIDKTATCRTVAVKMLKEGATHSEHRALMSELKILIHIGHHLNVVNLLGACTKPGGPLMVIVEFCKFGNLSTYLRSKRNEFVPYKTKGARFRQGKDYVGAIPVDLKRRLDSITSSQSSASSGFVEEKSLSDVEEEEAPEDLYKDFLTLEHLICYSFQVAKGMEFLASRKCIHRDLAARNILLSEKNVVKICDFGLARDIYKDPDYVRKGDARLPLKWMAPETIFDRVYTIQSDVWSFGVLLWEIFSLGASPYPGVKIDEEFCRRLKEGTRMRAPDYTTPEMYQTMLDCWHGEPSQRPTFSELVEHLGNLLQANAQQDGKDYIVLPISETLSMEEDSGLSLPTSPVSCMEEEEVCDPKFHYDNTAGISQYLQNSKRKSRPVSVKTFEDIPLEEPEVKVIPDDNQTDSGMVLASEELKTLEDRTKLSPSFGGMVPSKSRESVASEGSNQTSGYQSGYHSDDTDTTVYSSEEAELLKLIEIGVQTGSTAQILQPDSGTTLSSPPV
T3 sequence (P35968 20-764 limits assumed): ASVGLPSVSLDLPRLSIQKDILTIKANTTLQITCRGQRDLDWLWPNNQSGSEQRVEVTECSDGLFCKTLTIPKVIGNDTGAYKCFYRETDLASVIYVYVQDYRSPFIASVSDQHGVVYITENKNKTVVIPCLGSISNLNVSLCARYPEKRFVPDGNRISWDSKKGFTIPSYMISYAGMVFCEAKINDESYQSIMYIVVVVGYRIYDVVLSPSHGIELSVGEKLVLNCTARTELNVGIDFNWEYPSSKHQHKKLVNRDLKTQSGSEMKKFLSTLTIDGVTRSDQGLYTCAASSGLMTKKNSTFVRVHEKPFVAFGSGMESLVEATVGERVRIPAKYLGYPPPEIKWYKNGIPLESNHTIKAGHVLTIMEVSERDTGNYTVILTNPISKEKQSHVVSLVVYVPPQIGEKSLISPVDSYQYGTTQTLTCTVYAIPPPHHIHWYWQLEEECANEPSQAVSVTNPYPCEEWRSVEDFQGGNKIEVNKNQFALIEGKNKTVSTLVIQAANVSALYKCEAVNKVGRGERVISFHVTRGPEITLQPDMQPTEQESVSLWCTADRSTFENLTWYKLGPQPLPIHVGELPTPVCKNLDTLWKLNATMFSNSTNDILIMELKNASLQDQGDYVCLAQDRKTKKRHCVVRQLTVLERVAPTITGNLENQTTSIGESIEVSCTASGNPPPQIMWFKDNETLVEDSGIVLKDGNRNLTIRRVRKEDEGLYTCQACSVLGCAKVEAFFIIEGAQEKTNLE
T1 sequence (P17948 27-1338): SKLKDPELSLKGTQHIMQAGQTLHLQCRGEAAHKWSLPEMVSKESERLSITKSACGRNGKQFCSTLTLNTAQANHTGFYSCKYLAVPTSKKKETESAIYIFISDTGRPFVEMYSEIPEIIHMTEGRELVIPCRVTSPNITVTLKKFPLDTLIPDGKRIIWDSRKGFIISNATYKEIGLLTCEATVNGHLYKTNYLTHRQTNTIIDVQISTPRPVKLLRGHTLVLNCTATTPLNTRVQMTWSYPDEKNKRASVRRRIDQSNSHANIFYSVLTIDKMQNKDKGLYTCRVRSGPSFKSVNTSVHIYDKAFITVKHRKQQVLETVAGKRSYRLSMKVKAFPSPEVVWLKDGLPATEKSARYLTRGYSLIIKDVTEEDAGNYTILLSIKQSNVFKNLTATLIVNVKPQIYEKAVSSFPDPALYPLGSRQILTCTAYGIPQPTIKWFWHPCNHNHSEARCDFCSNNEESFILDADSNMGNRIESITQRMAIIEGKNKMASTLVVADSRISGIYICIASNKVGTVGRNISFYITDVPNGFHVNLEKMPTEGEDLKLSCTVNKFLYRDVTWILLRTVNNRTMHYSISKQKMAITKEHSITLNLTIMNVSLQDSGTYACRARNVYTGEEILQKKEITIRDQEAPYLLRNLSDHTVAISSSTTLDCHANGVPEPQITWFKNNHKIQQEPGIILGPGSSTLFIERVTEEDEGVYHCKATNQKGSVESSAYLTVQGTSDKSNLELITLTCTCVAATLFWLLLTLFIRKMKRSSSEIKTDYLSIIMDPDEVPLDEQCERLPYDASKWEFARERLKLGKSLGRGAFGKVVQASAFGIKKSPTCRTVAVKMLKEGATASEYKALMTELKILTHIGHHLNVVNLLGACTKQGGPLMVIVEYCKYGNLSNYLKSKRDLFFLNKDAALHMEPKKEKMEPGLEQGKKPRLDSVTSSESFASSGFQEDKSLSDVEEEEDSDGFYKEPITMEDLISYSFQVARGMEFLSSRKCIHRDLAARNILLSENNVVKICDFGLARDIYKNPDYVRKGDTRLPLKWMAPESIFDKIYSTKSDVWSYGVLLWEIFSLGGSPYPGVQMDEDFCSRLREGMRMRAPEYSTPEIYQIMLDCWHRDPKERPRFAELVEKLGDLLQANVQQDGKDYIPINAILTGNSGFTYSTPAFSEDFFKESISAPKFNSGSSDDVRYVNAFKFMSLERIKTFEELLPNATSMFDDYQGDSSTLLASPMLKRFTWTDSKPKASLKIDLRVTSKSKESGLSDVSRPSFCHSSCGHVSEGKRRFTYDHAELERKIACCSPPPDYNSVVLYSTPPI

B1: biotin-labeled RLYE (peptide)
peptide: RLYE
modifications: also: biotin-labeled, site not given here
notes: Used at 0.15 or 1.5 nM in the pull-down from HUVEC lysate with streptavidin-agarose beads; also called biotinylated RLYE peptide
Turning to B1, the binding result in the experiment with VEGFR-1 was “no binding”.

B2: FITC-conjugated RLYE (peptide)
peptide: RLYE
modifications: also: FITC-conjugated, site not given here
notes: Used at 15 nM in FACS and at 100 ng/ml in confocal microscopy on HUVECs; also called FITC-RLYE
Regarding B2, the binding result in experiment [1] is reported as “binds”.

B3: RLYE peptide (SEQ ID NO: 2) (peptide)
peptide: RLYE
notes: Unlabelled synthetic tetrapeptide, analyte in the SPR assay and used in the cell assays
With B3, in experiment [2], the “IC50 of VEGF-induced HUVEC migration (transwell)” value was 0.06 nM and the “IC50 of VEGF-induced HUVEC proliferation ([3H]-thymidine incorporation)” value came out at 0.08 nM. Further, the Kd with rhVEGFR-2 was 9 µM.

The values above are taken from US20170037083A1 (AVIXGEN, published 2017).
